Test results reported in patent publication US20120058906A1 (published 2012).

Assays:
[1] = biological target: T1, Recombinant Human DLL4 (R&D Systems Cat#1506-D4/CF) (human, UniProt Q9NR61 27-524); experiment: ECL (MSD multi-spot), Fab 930 nM; blank 1206
T1 construct: Bought recombinant protein; also called delta-like protein 4

[2] = biological target: T2, rHuman Erythropoietin R/Fc Chimera, CF (R&D Systems Cat#963-ER) (human, UniProt P19235 25-250); experiment: ECL (MSD multi-spot), Fab 930 nM; blank 1206
T2 construct: Bought Fc chimera; also called EPO R/Fc; Epo R; Fc part of the bought chimera not given
T2 sequence: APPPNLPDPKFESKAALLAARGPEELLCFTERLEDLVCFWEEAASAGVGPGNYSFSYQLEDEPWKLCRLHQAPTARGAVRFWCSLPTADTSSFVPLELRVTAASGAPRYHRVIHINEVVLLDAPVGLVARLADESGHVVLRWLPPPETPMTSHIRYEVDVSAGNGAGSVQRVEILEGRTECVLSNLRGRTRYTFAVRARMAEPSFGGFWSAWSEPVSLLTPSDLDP

[3] = biological target: T3, rHuman ErbB2/Fc Chimera, CF (R&D Systems Cat#1129-ER) (human, UniProt P04626 23-652); experiment: ECL (MSD multi-spot), Fab 930 nM; blank 1206
T3 construct: Bought Fc chimera; also called human epidermal growth factor 2 receptor; HER2/neu; Fc part of the bought chimera not given

[4] = biological target: T4, rHuman Notch-1/Fc Chimera, CF (R&D Systems Cat#3647-TK) (human, UniProt P46531 19-526); experiment: ECL (MSD multi-spot), Fab 930 nM; blank 1206
T4 construct: Bought Fc chimera; Fc part of the bought chimera not given

[5] = biological target: T5, rHuman CD44/Fc Chimera, CF (R&D Systems Cat#3660-CD) (human, UniProt P16070 21-220); experiment: ECL (MSD multi-spot), Fab 930 nM; blank 1206
T5 construct: Bought Fc chimera; Fc part of the bought chimera not given

[6] = biological target: T1, Recombinant Human DLL4 (R&D Systems …); experiment: ECL (MSD multi-spot), Fab 232.5 nM; blank 460
[7] = biological target: T2, rHuman Erythropoietin R/Fc Chimera, CF …; experiment: ECL (MSD multi-spot), Fab 232.5 nM; blank 460
[8] = biological target: T3, rHuman ErbB2/Fc Chimera, CF (R&D …); experiment: ECL (MSD multi-spot), Fab 232.5 nM; blank 460
[9] = biological target: T4, rHuman Notch-1/Fc Chimera, CF (R&D …); experiment: ECL (MSD multi-spot), Fab 232.5 nM; blank 460
[10] = biological target: T5, rHuman CD44/Fc Chimera, CF (R&D Systems …); experiment: ECL (MSD multi-spot), Fab 232.5 nM; blank 460
[11] = biological target: T1, Recombinant Human DLL4 (R&D Systems …); experiment: ECL (MSD multi-spot), Fab 58.1 nM; blank 225
[12] = biological target: T2, rHuman Erythropoietin R/Fc Chimera, CF …; experiment: ECL (MSD multi-spot), Fab 58.1 nM; blank 225
[13] = biological target: T3, rHuman ErbB2/Fc Chimera, CF (R&D …); experiment: ECL (MSD multi-spot), Fab 58.1 nM; blank 225
[14] = biological target: T4, rHuman Notch-1/Fc Chimera, CF (R&D …); experiment: ECL (MSD multi-spot), Fab 58.1 nM; blank 225
[15] = biological target: T5, rHuman CD44/Fc Chimera, CF (R&D Systems …); experiment: ECL (MSD multi-spot), Fab 58.1 nM; blank 225
[16] = biological target: T1, Recombinant Human DLL4 (R&D Systems …); experiment: ECL (MSD multi-spot), Fab 14.5 nM; blank 117
[17] = biological target: T2, rHuman Erythropoietin R/Fc Chimera, CF …; experiment: ECL (MSD multi-spot), Fab 14.5 nM; blank 117
[18] = biological target: T3, rHuman ErbB2/Fc Chimera, CF (R&D …); experiment: ECL (MSD multi-spot), Fab 14.5 nM; blank 117
[19] = biological target: T4, rHuman Notch-1/Fc Chimera, CF (R&D …); experiment: ECL (MSD multi-spot), Fab 14.5 nM; blank 117
[20] = biological target: T5, rHuman CD44/Fc Chimera, CF (R&D Systems …); experiment: ECL (MSD multi-spot), Fab 14.5 nM; blank 117
[21] = biological target: T6, rHuman CD44/Fc Chimera, CF (R&D Systems Cat#3660-CD) (human, UniProt P16070 21-220); experiment: MSD ECL multi-spot, Fab 0.74 uM, blank 692;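 note: blank spot per well as comparator with Hit at signal to blank ratio of 4 or more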
T6 construct: Bought Fc chimera; Fc part of the bought chimera not given

[22] = biological target: T7, rHuman HGF R/c-MET/Fc Chimera, CF (R&D Systems Cat#358-MT/CF) (human, UniProt P08581 25-932); experiment: MSD ECL multi-spot, Fab 0.74 uM, blank 692;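 note: blank spot per well as comparator with Hit at signal to blank ratio of 4 or more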
T7 construct: Bought Fc chimera; also called HGF R/Fc; Fc part of the bought chimera not given

[23] = biological target: T8, rHuman ErbB2/Fc Chimera, CF (R&D Systems Cat#1129-ER) (human, UniProt P04626 23-652); experiment: MSD ECL multi-spot, Fab 0.74 uM, blank 692;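 note: blank spot per well as comparator with Hit at signal to blank ratio of 4 or more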
T8 construct: Bought Fc chimera; also called HER2/neu; Fc part of the bought chimera not given

[24] = biological target: T9, rHuman IGF-1 sR (insulin-like growth factor-1 soluble receptor), CF (R&D Systems Cat#391-GR) (human, UniProt P08069 31-932); experiment: MSD ECL multi-spot, Fab 0.74 uM, blank 692;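 note: blank spot per well as comparator with Hit at signal to blank ratio of 4 or more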
T9 construct: Bought soluble receptor; also called IGF-R1

[25] = biological target: T10, rHuman EGF R/Fc Chimera, CF (R&D Systems Cat#344-ER) (human, UniProt P00533 25-645); experiment: MSD ECL multi-spot, Fab 0.74 uM, blank 692;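 note: blank spot per well as comparator with Hit at signal to blank ratio of 4 or more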
T10 construct: Bought Fc chimera; Fc part of the bought chimera not given

[26] = biological target: T11, rHuman P-Cadherin/Fc Chimera, CF (R&D Systems Cat#861-PC) (human, UniProt P22223 108-654); experiment: MSD ECL multi-spot, Fab 0.74 uM, blank 692;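 note: blank spot per well as comparator with Hit at signal to blank ratio of 4 or more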
T11 construct: Bought Fc chimera; Fc part of the bought chimera not given

[27] = biological target: T12, Recombinant Human DLL4 (R&D Systems Cat#1506-D4/CF) (human, UniProt Q9NR61 27-524); experiment: MSD ECL multi-spot, Fab 0.74 uM, blank 692
T12 construct: Bought recombinant protein; also called rHuman DLL4; delta-like protein 4

[28] = biological target: T13, rHuman Notch-1/Fc Chimera, CF (R&D Systems Cat#3647-TK) (human, UniProt P46531 19-526); experiment: MSD ECL multi-spot, Fab 0.74 uM, blank 692
T13 construct: Bought Fc chimera; Fc part of the bought chimera not given

[29] = biological target: T14, rHuman Erythropoietin R/Fc Chimera, CF (R&D Systems Cat#963-ER) (human, UniProt P19235 25-250); experiment: MSD ECL multi-spot, Fab 0.74 uM, blank 692
T14 construct: Bought Fc chimera; also called EPO R/Fc; EPOR; Fc part of the bought chimera not given
T14 sequence: T2 sequence

[30] = biological target: T15, rHuman Erythropoietin R/Fc Chimera, CF (R&D Systems, Cat#963-ER) (human, UniProt P19235 25-250); experiment: ECL (MSD) Fab titration; binding affinity estimated from the 50% binding signal
T15 construct: Bought chimera; also called EPO R/Fc; Epo R; Fc part of the bought chimera not given
T15 sequence: T2 sequence

[31] = biological target: T9, rHuman IGF-1 sR (insulin-like growth …); experiment: MSD ECL multi-spot, Fab 0.43 uM, blank 879;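 note: blank spot per well as comparator with Hit at signal to blank ratio of 4 or more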
[32] = biological target: T12, Recombinant Human DLL4 (R&D Systems …); experiment: MSD ECL multi-spot, Fab 0.43 uM, blank 879;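 note: blank spot per well as comparator with Hit at signal to blank ratio of 4 or more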
[33] = biological target: T13, rHuman Notch-1/Fc Chimera, CF (R&D …); experiment: MSD ECL multi-spot, Fab 0.43 uM, blank 879;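 note: blank spot per well as comparator with Hit at signal to blank ratio of 4 or more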

B1: Fab VH1-46_IGHD6-13*01_IGHJ4*01 & O1_IGKJ1*01 (Fab, V domains shown)
VH: QVQLVQSGAEVKKPGASVKVSCKASGYTFTSYYMHWVRQAPGQGLEWMGIINPSGGSTSYAQKFQGRVTMTRDTSTSTVYMELSSLRSEDTAVYYCAREGYSSSWYDYFDYWGQGTLVTVSS
VL: DIVMTQTPLSLPVTPGEPASISCRSSQSLLDSDDGNTYLDWYLQKPGQSPQLLIYTLSYRASGVPDRFSGSGSGTDFTLKISRVEAEDVGVYYCMQRIEFPSWTFGQGTKVEIK
notes: Tested as a Fab expressed in E. coli: heavy chain with CH1 plus Flag and His tags from Plasmid A, kappa constant region from Plasmid C
[1]
  ECL signal: 8160 ECL signal
[2]
  ECL signal: 3010 ECL signal
[3]
  ECL signal: 2220 ECL signal
[4]
  ECL signal: 2210 ECL signal
[5]
  ECL signal: 1920 ECL signal
[6]
  ECL signal: 3590 ECL signal
[7]
  ECL signal: 1470 ECL signal
[8]
  ECL signal: 779 ECL signal
[9]
  ECL signal: 778 ECL signal
[10]
  ECL signal: 607 ECL signal
[11]
  ECL signal: 1880 ECL signal
[12]
  ECL signal: 829 ECL signal
[13]
  ECL signal: 322 ECL signal
[14]
  ECL signal: 388 ECL signal
[15]
  ECL signal: 375 ECL signal
[16]
  ECL signal: 1150 ECL signal
[17]
  ECL signal: 660 ECL signal
[18]
  ECL signal: 274 ECL signal
[19]
  ECL signal: 317 ECL signal
[20]
  ECL signal: 212 ECL signal

B2: Fab VH1-46_IGHD3-10*01_IGHJ4*01 & B3_IGKJ1*01 (Fab, V domains shown)
VH: QVQLVQSGAEVKKPGASVKVSCKASGYTFTSYYMHWVRQAPGQGLEWMGIINPSGGSTSYAQKFQGRVTMTRDTSTSTVYMELSSLRSEDTAVYYCAREYYYGSGSYYNDYFDYWGQGTLVTVSS
VL: not shown
notes: Expressed in E. coli as Fab: heavy chain with CH1 plus Flag and His tags from Plasmid A, kappa light chain constant region from Plasmid C; also called Fab No. 5
[21]
  ECL signal: 682
[22]
  ECL signal: 633
[23]
  ECL signal: 562
[24]
  ECL signal: 593
[25]
  ECL signal: 652
[26]
  ECL signal: 1160
[27]
  ECL signal: 1000
[28]
  ECL signal: 980
[29]
  ECL signal: 4110

B3: Fab VH1-46_IGHD3-10*01_IGHJ4*01 & B3_IGKJ1*01 (Fab, V domains shown)
VH: B2 VH
VL: not shown
notes: Fab from E. coli; VH joined to CH1 with Flag and His tags (Plasmid A), VL to kappa CL (Plasmid C)
[30]
  Kd: ~100 nM

B4: Fab VH1-46_IGHD6-13*01_IGHJ4*01 & B3_IGKJ1*01 (Fab, V domains shown)
VH: B1 VH
VL: not shown
notes: Expressed in E. coli as Fab: heavy chain with CH1 plus Flag and His tags from Plasmid A, kappa light chain constant region from Plasmid C; also called Fab No. 6
[31]
  ECL signal: 1140
[32]
  ECL signal: 2540
[33]
  ECL signal: 1790
